Assay results published in the nanobody polyreactivity screen of Harvey et al. (2022).

Assay: yeast display, Sf9 membrane polyspecificity reagent, FACS + sequencing; frameworks hold sequencing errors
In short: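 Nanobodies from a synthetic yeast display library (Saccharomyces cerevisiae BJ5465), induced 36–48 hours with galactose, were stained 1 hour at 4 °C with 10% biotinylated, detergent-solubilized Sf9 membrane reagent, enriched on streptavidin microbeads, then FACS-sorted. Anti-HA (expression) and streptavidin (reagent binding) fluorescence set low and high (top ~1%) gates. Polyreactivity labels come from the gate of origin. Genes were colony-PCR amplified, MiSeq 2 × 250 sequenced and filtered by CDR length.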

| Sequence | polyreactivity (PSR sort gate) |
| --- | --- |
| QVQLEEAVGGLLQAGGSLRFSCAASGGLFWVYAMGRYRQAPGKERELVAAISNSDTSTSYADSVKGRFTISRDNAQNTVYLQMNSLKAEDTAVYYCKADSPSLSGDSWGQGTQVNVSS | low polyreactivity |
| QVQLVESGGGLVKAGGSLRLSCAASGSTFSRYAMGWYRQAPGKEREFVADITFRTSSTNYADSVKGRFTISRDNAKNTVYLQMNSLKPEDPAVYYCATDTQYKSYAHDYWGQGTQVTVSS | low polyreactivity |
| QVQLVESGGGLVQAGGSLRLSCAASGIIYTYYAMGWYRQAPGKERELVARISSSGGRTYYADSVKGRFTISRDNAKNTVYLQMNSLKPEDTAVYYCAAAIVSYGRNDYWGQGTQVTVSS | high polyreactivity |
| QVQLVESGGGLVQAGGSLRLSCAASGRTFAYYVMGWDRQAPGKERELVAAISWSAGSTYYADSVKGRFTISRDNAKNTVYLQMNSLKPEDTAVYYCAADYRFRYEYWGQGTQVTVSS | low polyreactivity |
| QVQLVESGGGLVQAGGSLRLSCAASGSTFDPYGMGWYRQAPGKERELVAAITSSGRTNYADSVKGRFTISRDNAKNTVYFQMNSLKPEDTAVYYCATRKERYFYRCYEYWGQGTQVTVSS | low polyreactivity |
| QVQLVESGGGLVQARGSLRLTCAASGYIFSAYAMGWYRQAPGKERELVAAISRGGSTKYADSVKGRFTISRDNAKNTVSLQMNSVKPEDPAVYDCATVVYHRRPPRTGHEYWGQGTQVTVSS | high polyreactivity |
| QVQLVESGGGLVQAGGSLRLSCGASGRIFRGYTMGWYRQAPGKERELVAAINRSGGNTYYADSVKGRFTISRDNAKNTVYLQLNSLKPEDTAVYYCAAGARGYGWRGDYWGQGTQVTVSS | low polyreactivity |
| QVQLVESGGGLVQAGGSLRLSCAASGRTFYLNTMGWYRQAPGKERELVAGITSSGTRTYYADSVKGRFTISRDNAKNTVYLQMNSLKPEDTAVYYSAKTWGGQIRPRYRYGSGYDYWGQGTQVTVSS | high polyreactivity |
| QVQLVESRGGLVQAGCSLRLRCAASGFIFSWYAMGWYRHAPGKERELDAAISASGTSTYYADSVKGRFTISRDNAKNTVYLQMNSLKPEDTAVYYCAAEFVTEYLYGFVYEYDSWGQGTQVTVSS | low polyreactivity |
| QVQLVESGGGLVQAGGSLRLSCAASGGIFRYAMGWYRQAPGKEREFVAAITTRGGSTYYADSVKGRFTISRDNAKNTVYLQMNSLKPEDTAVYYCAARPYSGRNKYDYWGQGTQVTVSS | high polyreactivity |
| QVQLVESGGGLVQAGGSLRLSCAASGSTFRENDMGWYRQAPGKERELVAALTFSGGSTYADSVKGRFTISRDNAKNTVYLQMNSLKPEDTAVYYCSADTLPAEFDYDYWGQGTQVTVSS | low polyreactivity |
| QVQLVESAGGLVQAGGSLRLSCAASGRTFQYYALGWYRQAPGKERELVAAISWSGGSTYYADSVTGRFTISRDNAKNTVYLLMNSLKPEDSAVYYCAKTSSGRKFYWGQGTQVTVSS | high polyreactivity |
| QVQLVESGGCLVQAGGSLRLSCAASGSIFSRYDMGWYRQAPGKEREFVPRITQRGGSTYYADSVKGRFTISRDNAKNTVYLQMNTVKPEDTAVYYCYADHYRRQLAEDYWGQGTQVTVSS | low polyreactivity |
| QVQLVESGGGLVQAGGSLRLSCAASGSIIDYNVMGWYRQAPGKEREFVAGISSTGGSTYYADSVKGRFSNSRDNAKHTVYLQMNSLKPEDTAVYYCAAYWNRAFRLDYWGQGTQVTVSS | high polyreactivity |
| QVQLVESGGGLVQAGGSLRLSCAASGFTFAWNAMGWYRQAPGKERELVATIDVSGGSTYYADSVKGRFTISRDNAKNTVYLQMNSLKPEDTAVYYCAAVELPEGGYDYWGQGTQVTVSS | low polyreactivity |
| QVQLVESGGGLVQAGGSLRLSCAASGFIFFSYAMGWYRQAPGKEREFVASISGRTGSTYYADSVKGRFTISRDNAKNTVYLQMNSLKPEDTAVYYCNARIVHSFRYDYWGQGTQVNVSS | low polyreactivity |
| QVQLVESGGGLVQAGGSLRLSCAASGSIFTRYVMGWYRQARGKERELVASISGRGSSTYYADSVKGRFTISRDNAKNTVYLQMNSLKPEDTAVYYCAAEIVVFYSEGQRNTFYYWGQGTQVTVSS | high polyreactivity |
| QVQLVESGGGLVQAGGSLRLSCAASGSIFLYYTMGWYRQEPGKERELVAAITWSGSSTYYADSVKGRFTISRDNAKNTVYLQMNSLKPEDTAVYYCATRYRYRYWGQGTQVTVSS | high polyreactivity |
| QVQLVESGGGLVQAGGSLRLSCGASGRIFYSNAMGWYRQAPGTERELVAAITGSGGRTHYADSVKGRFTISRDNAKNTVYLQMNSLKPEDTAVYYCAKDGYFPEFDYWGQGTQVTVSS | high polyreactivity |
| QVQLVESGVCLVQAGGSLRLSCAATGFTIKYYAMGWYRQPPGKEMELVAAISWTGANTYYADSVKGRFTISRDNAKNTVYLQMNSLKPDYTAVYYCAAGYLIGHSVRTTVRTIYEYWGQGTQVTVSS | high polyreactivity |
| QVQLVESGGGLVQAGRSLRLSCAASGFTFETYAMGWYRQAPGKERELVAAISDGGGDTYYADSVKGRFTISRDNAKNTVYLLMNSLKPEDSAVYYCAAEWDGNWSRGAGGYDYWGQGTQVTVSS | low polyreactivity |
| QFQLVESGGGLVQAGGSLRLSCAASGRIFVLNAMGWYRQAPGKERELVAAISGSGSRTYYADSVKGRFTISRDNAKNTVYLQMNSLNPEDTAVYYCNNVSRRSEHTYDYWGQGTQVTVSS | high polyreactivity |

| Sequence | polyreactivity (PSR sort gate) |
| --- | --- |
| QVQLVESGGGLVQAGGSLRLSCAASGSTLESYAMGWYRQAPGKERELVAAISKSGGRTYYADSVKGRFTISRDNAKNTLYLQMNSLKPEDTAVYYCAADSGTHLTYYWGQGTQVTVSS | high polyreactivity |
| QVQLVESGGGLVQAGGSLRLSCAASGRTSEIYTMGWYRPAPGKERELVASINTNYADSVKGGFTNSRDNAKNTVYLQMNCLKPEDTAVYYCNADDTIEFNYWGQGTQVTVSW | low polyreactivity |
| QVQLVESGGGLVQAGGSLRLSCAASGFIFIEYTMGWYRQAPGKERQLVAAISSGGNTYYADSVKGRFTISRDNAKNTVYLQMNSLKPEDTAVYYCNADNYAFYTQRPLDGSATYDYWGQGTQVTVSS | low polyreactivity |
| QVQLVESGGGLVQAGGSLRLSCAASGRIFGFNAMGWYRQAPGKERELVAGITDSSGRTNYADSVKGRFTISRDNAKNTVYLEMNSLKPEDTAVLYCAKDGLVITAVGSDLWGHGTQVTVSS | low polyreactivity |
| QVQLVESGGGLVQEGGSLRLSCAASGRISYIYAMGWYRQAQGKERELVAAITRGGSTNYADSVKGCFTISRDNAKNTVYLQMNSLKPEDTAVYYCAARRRRSGGYEYDYWGQGTQVTVSS | high polyreactivity |
| QVQLVESGGGLVQAGGSLRLSCAASGLTFTSNVMGWYRQAPGKERELVAAISSGGSTYYADSVKGRFTISRDNAKNTVYLQMNSLKPEDTAVYYCNTKLWGQYDYWGQGTQVTVSS | low polyreactivity |
| QVQLVESGGGLVQAGGSLRLSCAASGFTNSMGWYRQAPGKERELVAAISYSGDSTNYADSVKGRFTISRDNAKNTVYLQMNSLKPQDTAVYYCNASSPYDYDWGQGTQVTVSS | low polyreactivity |
| QVQLVESGGGLVQAGGSLRLSCAASGSIFYNNAMGWYRQAPGKERELVAAISLRGGSTYYADSVKGRFTISRDNAKNTVYLQMNSLKPEDTAVYYCAAGVRSPFRGGYYWGQGTQVTVSS | high polyreactivity |
| QVQLVESGRGLVQAGGSLRLSCAASGFIFNLYAMGWYRQAPGKERELVAAISGGGSTYYAYSVKGRFTISRDNAKNTVYLQMISLKPEDNAVYYCAKKGGHRTYGYDSWGQGTQVTVSS | low polyreactivity |
| QVQLVESGGGLVQAGGSLRLSCAASGSTFLGYAMGWYRQAPGKERELVAAITYSAGSTYYADSVKGRFTISRDNAKNTVYLQMNSLKPEDTAVYYSAKRYSGYDHWGQGTQVTVSS | low polyreactivity |
| QVQLVESGGGLVQAGGSLRLSCAASGFIFYRYAMGWYRQAPGKERELVAAISSSGGSTYYADSVKGRFTISRDNAKNTVYFQMNSLKPEDTAVYYCNKRPQQYRPGYDYWGQGTQVTVSS | high polyreactivity |
| QVQLVESVGGLVQAGGSLRLSGADSGITFGVYAMGWYRQAPGKVRELVAAICVSGGSTYYADSVKGRFTISRDNAKNTVYLHMNSLKPEVTAVYYCAADRYGHFGYWGQGTQVTLSS | high polyreactivity |
| QVQLVESGGGLVQAGGSLRLSCAASGITFIRNGMGWYRQAPGKERELVAAISDTGARTYYADSVKGRFTISRDNAKNTVYLQMNSLKPEDTAVYYCAAEVRTRYLYSFRWYDYWGQGTQVTVSS | low polyreactivity |
| QVQLVESGGGLVQAGGSLRLSCAASGRTFGGNAMGWSRQAPGKERELVAAISISGGSNTYYADSVKGRFTISRDNGKNTVYLQMNSLKPEDTAVYYCAARSTVYISSDYWGQGTQVTVSS | low polyreactivity |
| QVQLVESGGGLVQAGGSLRLSCAASGFTFKYYAMGWYRPAPGKERELVAAIRRSAGSTNYADSVKGRFTISRDNAKNTVYLQMNSLKPEDTAVYYCNTVGTRQPMDYWGQGTQVTVSS | high polyreactivity |
| QVQLVESGGGLVQAGGSIRLSCAASGITFVGNAMGWYRQAPGKERELVASISSGASTNYADSVKGRFTISRDNAKNTVYLQMNSLKPEDTAVYYCAAEGSLEGWDFDSWGQGTQVTVSS | low polyreactivity |
| QVQLVESGGGLVQAGGSLRLSCAASGSILQSYAMGWSRQAPGKERELGAALSGSGGSTYYADSVKGRFTISRDNAKNTVYLQMNSLKPEDTAVYYCAKGPLYRTSRGEFGYWGQGTQVTVSS | low polyreactivity |
| QVQLVESGGGLVQAGGSLRLSCAASGFIFGLYAMGWYRQAPGKERELVAAISSGGSTYYADSVKGRFTISRDNAKNTVYLQMNSLKPEDTAVYYCAAYYVYSEYDYWGQGTQVTVSS | high polyreactivity |
| QVQLVESGGGLFQAGGSLRLSCAASGSIFTKYAMGWYRQAPGKERELVAAISQGGASTRYADSVKGRFTISRDNAKKTVYLQMNSLKPEDTAVYYCAAKSRHFWMDYWGQATQVTVSS | high polyreactivity |
| QVQLVESGGGLVQAGGSLRLSCAASGRIFSQYAMGWNRQAPGKERELVAAITWRGASTYYADSVKGRFTISRDNAKNTVYLQMNSLKPEDTAVYYCAAGYPQGRYYRVRWVGYWGQGTQVTVSS | high polyreactivity |
| QVQLEESGGGLVQAGGSLRLTCAASGSTSQIYAMGWYRQAPGKERELVAAINGVGSTNYADSVKGRFTISRDNAKNTVYLQMNSLKPEDTAVYYCAADGTALHEYLGDYDYWGQGTQVTVSS | low polyreactivity |
